B1: H1M8037C (antibody, mouse IgG1, kappa, V domains shown)
VH: QVQLVQSGAEVKKPGASVKVSCKASGYTFTNYDIIWVRQAPGQGLEWMGYINPYNDGTKYNEKFKGRVTMTRDTSTSTVYMELSSLRSEDTAVYYCARLLKYRRFRYYAIDYWGQGTTVTVSS
VL: DIQMTQSPSSLSASVGDRVTITCRTSENVYSNLAWYQQKPGKAPKLLIYAASNLQSGVPSRFSGSGSGTDYTFTISSLQPEDIATYYCQHFWGSPFTFGQGTKLEIKR
notes: captured by anti-mFc in SPR; also called Comparator; comparator anti-TrkB monoclonal antibody
B2: M2aM14173N (antibody, mouse IgG2a, kappa, V domains shown)
VH: NVSLVESGGGSVKPGGSLQLSCAASGFTFSSSAMSWIRQTPEMRLEWVATISDRGSYTYYPDSVEGRFTISRDNAKNILYLQMSHLMSEDTAMYYCARGKGEKAYYTAFFAYWGQGSLVTVSA
VL: DIQMTQSPASLSASVGETVTITCRASENIYSYLAWYQQKPGKSPHLLVHNAETLAEGVPSRFSGSGSGPQFSLKINSLQPGDSGTYYCQHHYSSPWTFGGGTKLEIKR
notes: Anti-mouse TrkB antibody from hybridoma, mouse IgG2a Fc; also called surrogate anti-mouse TrkB antibody
B3: M2aM14179N (antibody, mouse IgG2a, kappa, V domains shown)
VH: EVQLQQSGPELVKPGASVKISCKASGYTLTDYYMNWVKQSHGKSLEWIGDINPNNGGTSYNQKFKGKATLTVDKSSSTAYMELRSLTSEDSAVYYCARGAYYSNYFDYWGQGTTLTVSS
VL: DIVMSQSPSSLAVSAGEKVTMSCKSSQSLLNSRTRKNYLAWYQQKPGQSPKLLIYWASTRESGVPDRFTGSGSGTDFTLTISSVQAEDLAVYYCKQSYILFTFGSGTQLEIKR
notes: as for B2

Experiments:
[1] = target: T1, rat TrkB extracellular domain expressed with a C-terminal myc-myc-hexahistidine tag (rat, UniProt Q63604 32-429); assay: SPR, mAb captured (anti-mFc), 37C
T1 construct: also called rTrkB.mmH; rTRKB.mmH
Method: (§1) Equilibrium dissociation constants (KD values) for TrkB binding to purified anti-TrkB monoclonal antibodies were determined using a real-time surface plasmon resonance biosensor using a Biacore 4000 instrument. All binding studies were performed in 10 mM Hepes pH 7.4, 150 mM NaCl, 3 mM EDTA, and 0.05% v/v Surfactant Tween-20 (HBS-ET running buffer) at 25° C. and 37° C. […] Binding studies were performed on following TrkB reagents; human TrkB extracellular domain expressed with a C-terminal myc-myc-hexahistidine tag (hTRKB.mmH; SEQ ID NO: 76; Accession number NP_001018074.1), mouse TrkB extracellular domain expressed with a C-terminal myc-myc-hexahistidine tag (mTRKB.mmH; SEQ ID NO: 79; Accession number NP_001020245), rat TrkB extracellular domain expressed with a C-terminal myc-myc-hexahistidine tag (rTRKB.mmH; SEQ ID NO: 84; Accession number NP_036863.1), and human TrkB extracellular domain expressed with a C-terminal mouse IgG2a Fc tag (hTrkB-mFc; SEQ ID NO: 77; Accession number NP_001018074.1). […] Kinetic association (kₐ) and dissociation (kd) rate constants were determined by fitting the real-time binding sensorgrams to a 1:1 binding model with mass transport limitation using Scrubber 2.0c curve-fitting software. Binding dissociation equilibrium constants (KD) and dissociative half-lives (t½) were calculated from the kinetic rate constants as: […]

[2] = target: T2, mouse TrkB extracellular domain expressed with a C-terminal myc-myc-hexahistidine tag (mouse, UniProt P15209 32-429); assay: SPR, mAb captured (anti-mFc), 37C
T2 construct: also called mTrkB.mmH; mTRKB.mmH
Method: as §1

[3] = target: T3, human TrkB extracellular domain expressed with a C-terminal mouse IgG2a Fc tag (human); assay: SPR, mAb captured (anti-mFc), 37C
T3 construct: also called hTrkB-mFc; hTrkB.mFc
Method: as §1

[4] = target: T4, human TrkB extracellular domain expressed with a C-terminal myc-myc-hexahistidine tag (human, UniProt Q16620 32-430); assay: SPR, mAb captured (anti-mFc), 37C
T4 construct: also called hTrkB.mmH; hTRKB.mmH
Method: as §1

[5] = target: T1, rat TrkB extracellular domain expressed …; assay: SPR, mAb captured (anti-mFc), 25C; 25 C; rTrkB.mmH
Method: as §1, with “All” for “Equilibrium dissociation constants (KD values) for TrkB binding to purified anti-TrkB monoclonal antibodies were determined using a real-time surface plasmon resonance biosensor using a Biacore 4000 instrument. All”

[6] = target: T1, rat TrkB extracellular domain expressed …; assay: SPR Biacore T200, mAb captured (anti-mFc), 25C
Method: (§2) Equilibrium dissociation constants (KD values) for TrkB binding to purified anti-TrkB monoclonal antibodies were determined using a real-time surface plasmon resonance biosensor using a Biacore T200 instrument. All binding studies were performed in 10 mM Hepes pH 7.4, 150 mM NaCl, 3 mM EDTA, and 0.05% v/v Surfactant Tween-20 (HBS-ET running buffer) at 25° C. The Biacore sensor surface was first derivatized by amine coupling with rabbit anti-mouse Fc polyclonal antibody (GE Healthcare #BR-1008-38) to capture anti-TrkB monoclonal antibodies. Binding studies were performed on the following TrkB reagents; human TrkB extracellular domain expressed with a C-terminal myc-myc-hexahistidine tag (hTrkB.mmH; SEQ ID NO: 76; NP_001018074.1), mouse TrkB extracellular domain expressed with a C-terminal myc-myc-hexahistidine tag (mTRKB.mmH; SEQ ID NO: 79; NP_001020245), and rat TrkB extracellular domain expressed with a C-terminal myc-myc-hexahistidine tag (rTRKB.mmH; SEQ ID NO: 84; XP_002721319.1). […] Kinetic association (kₐ) and dissociation (kd) rate constants were determined by fitting the real-time binding sensorgrams to a 1:1 binding model with mass transport limitation using Scrubber 2.0c curve-fitting software. Binding dissociation equilibrium constants (KD) and dissociative half-lives (t½) were calculated from the kinetic rate constants as: […]

[7] = target: T2, mouse TrkB extracellular domain …; assay: SPR Biacore T200, mAb captured (anti-mFc), 25C
Method: as §2

[8] = target: T4, human TrkB extracellular domain …; assay: SPR Biacore T200, mAb captured (anti-mFc), 25C
Method: as §2

T3 sequence (chain, as listed by the source limits assumed): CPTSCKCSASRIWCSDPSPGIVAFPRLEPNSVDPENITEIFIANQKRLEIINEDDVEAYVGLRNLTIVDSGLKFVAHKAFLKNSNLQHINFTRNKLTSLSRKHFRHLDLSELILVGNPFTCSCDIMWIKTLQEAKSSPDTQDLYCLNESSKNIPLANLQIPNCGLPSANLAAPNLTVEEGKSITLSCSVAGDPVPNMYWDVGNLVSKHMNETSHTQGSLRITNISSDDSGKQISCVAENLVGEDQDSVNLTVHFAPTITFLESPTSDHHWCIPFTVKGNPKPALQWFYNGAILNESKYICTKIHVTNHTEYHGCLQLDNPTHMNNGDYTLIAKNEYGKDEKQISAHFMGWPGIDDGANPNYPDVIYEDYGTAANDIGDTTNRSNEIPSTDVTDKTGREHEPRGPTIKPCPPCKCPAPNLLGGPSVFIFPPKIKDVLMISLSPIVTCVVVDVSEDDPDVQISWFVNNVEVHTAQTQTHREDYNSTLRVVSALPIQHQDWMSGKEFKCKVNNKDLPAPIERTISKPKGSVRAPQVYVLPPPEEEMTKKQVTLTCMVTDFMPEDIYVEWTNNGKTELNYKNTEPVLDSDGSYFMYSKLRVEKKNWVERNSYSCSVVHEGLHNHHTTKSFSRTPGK
T2 sequence (P15209 other isoform, or with tags, fused parts or gaps): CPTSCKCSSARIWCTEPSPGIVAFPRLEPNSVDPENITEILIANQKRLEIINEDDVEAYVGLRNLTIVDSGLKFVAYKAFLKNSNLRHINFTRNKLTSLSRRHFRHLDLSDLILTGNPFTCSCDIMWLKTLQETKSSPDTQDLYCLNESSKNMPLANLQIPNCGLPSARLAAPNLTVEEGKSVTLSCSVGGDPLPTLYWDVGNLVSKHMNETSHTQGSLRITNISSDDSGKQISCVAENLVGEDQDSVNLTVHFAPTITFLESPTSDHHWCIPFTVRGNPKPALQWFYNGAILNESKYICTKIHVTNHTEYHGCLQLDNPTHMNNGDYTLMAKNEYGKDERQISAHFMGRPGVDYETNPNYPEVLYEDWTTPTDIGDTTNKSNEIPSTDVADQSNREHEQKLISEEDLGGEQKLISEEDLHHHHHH
T4 sequence (Q16620 other isoform, or with tags, fused parts or gaps): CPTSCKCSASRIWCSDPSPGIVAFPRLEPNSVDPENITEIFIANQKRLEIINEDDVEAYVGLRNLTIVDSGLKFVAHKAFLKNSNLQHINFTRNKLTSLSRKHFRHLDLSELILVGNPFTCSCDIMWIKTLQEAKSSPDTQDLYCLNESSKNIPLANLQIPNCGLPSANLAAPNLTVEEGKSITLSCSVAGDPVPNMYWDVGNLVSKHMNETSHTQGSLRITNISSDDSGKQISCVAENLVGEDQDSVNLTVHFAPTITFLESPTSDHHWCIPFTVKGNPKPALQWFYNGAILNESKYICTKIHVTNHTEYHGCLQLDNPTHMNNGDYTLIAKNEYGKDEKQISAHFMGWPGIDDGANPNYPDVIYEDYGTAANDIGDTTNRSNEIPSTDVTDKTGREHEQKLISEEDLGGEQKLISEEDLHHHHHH
T1 sequence (Q63604 other isoform, or with tags, fused parts or gaps): as the sequence (P15209 other isoform, or with tags, fused parts or gaps) above, with T3M, S9T, A10T, V32I, R63K, S84G, M153T, L185I, S394T counted along it

Binder | 90 nM rTrkB.mmH Bound (RU) [6] [RU] | Kd [6] [nM] | koff [6] [s⁻¹] | kon [6] [M⁻¹ s⁻¹] | t½ [6] [min] | 90 nM TrkB.mmH Bound (RU) [7] [RU] | Kd [7] [nM] | koff [7] [s⁻¹] | kon [7] [M⁻¹ s⁻¹] | t½ [7] [min] | 90nM hTrkB.mmH Bound (RU) [8] [RU] | also measured
B1 |  |  |  |  |  |  |  |  |  |  |  | Kd [1]: 87.5 nM; koff [1]: 0.00694 s⁻¹; kon [1]: 79300 M⁻¹ s⁻¹; t½ [1]: 1.7 min; Kd [2]: 94.1 nM; koff [2]: 0.00696 s⁻¹; kon [2]: 74000 M⁻¹ s⁻¹; t½ [2]: 1.7 min; Kd [3]: 1.24 nM; koff [3]: 0.000292 s⁻¹; kon [3]: 235000 M⁻¹ s⁻¹; t½ [3]: 40 min; Kd [4]: 135 nM; koff [4]: 0.00831 s⁻¹; kon [4]: 61300 M⁻¹ s⁻¹; t½ [4]: 1.4 min; Kd [5]: 31.8 nM
B2 | 33 | 8 | 0.000632 | 79000 | 18 | 33 | 8.49 | 0.00063 | 74100 | 18 | 0 | binding result [8]: no binding (tested: 90 nM)
B3 | 33 | 26.9 | 0.00398 | 148000 | 2.9 | 32 | 32.4 | 0.00372 | 115000 | 3.1 | -2 | 

From patent US20190161551A1 (Regeneron, published 2019)
